For this experiment, the target named is T1, soluble human CD3 epsilon chain (human, UniProt P07766 23-126).
T1 construct: also called CD3ε
The experiment in a line: SPR. (In general: SPR reads the build-up and loss of mass on a sensor chip optically.)

Substitutions are numbered along the chain they refer to.

T1 sequence (P07766 23-126 limits assumed): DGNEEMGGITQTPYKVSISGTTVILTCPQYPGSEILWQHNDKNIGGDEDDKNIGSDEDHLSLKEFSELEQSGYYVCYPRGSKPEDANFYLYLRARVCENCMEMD

B1: TR01H061-E22Hh/none-Hi-Kn010G3/L0200-k0 (antibody, V domains shown)
VH: QVQLVESGGGLVQPGRSLRLSCAASGFTFSNAWMHWVRQAPGKGLEWVAQIKDKSQNYATYYAESVKGRFTISRADSKNSIYLQMNSLKTEDTAVYYCRYVHYAASYGVDIWGQGTTVTVSS
VL: DIVMTQSPLSLPVTPGEPASISCRPSQSPVHSNRNTYLHWYQQKPGQAPRLLIYKVSNRFSGVPDRFSGSGSGTDFTLKISRVEAEDVGVYYCGQGTQVPYTFGQGTKLEIK
notes: one-arm
By Kd is commonly meant the constant that tells how readily two partners part at equilibrium. Regarding B1, the Kd came out at 12.7 nM.

B2: TR01H082-E22Hh/none-Hi-Kn010G3/TR01L017-k0 (antibody, V domains shown)
VH: B1 VH with A75D, I81L, S106G, I111A
VL: B1 VL with P25S, L38I, H39Q, Q42L, A48S, R50Q, G94Y
notes: one-arm
In the case of B2, the dissociation constant (Kd) was 109 nM.

B3: TR01H082-E22Hh/none-Hi-Kn010G3/L0262-k0 (antibody, V domains shown)
VH: B1 VH with A75D, I81L, S106G, I111A
VL: B1 VL with P25S, S28P, G94A
notes: one-arm
B3 showed a Kd of 39.8 nM.

B4: TR01H067-E22Hh/none-Hi-Kn010G3/TR01L018-k0 (antibody, V domains shown)
VH: B1 VH with A75D, I81L, I111A
VL: B1 VL with R24Q, P25A, Q27E, Q42L, A48S, R50Q
notes: one-arm
In the case of B4, the Kd was determined as 52.6 nM.

B5: TR01H082-E22Hh/none-Hi-Kn010G3/L0258-k0 (antibody, V domains shown)
VH: B1 VH with A75D, I81L, S106G, I111A
VL: B1 VL with P25S, S28P, G94T
notes: one-arm
In turn, B5 registered a Kd of 47 nM.

B6: TR01H082-E22Hh/none-Hi-Kn010G3/L0267-k0 (antibody, V domains shown)
VH: B1 VH with A75D, I81L, S106G, I111A
VL: B1 VL with G94V
notes: one-arm
For the molecule B6, binding was put at a Kd of 22.9 nM.

B7: TR01H084-E22Hh/none-Hi-Kn010G3/L0262-k0 (antibody, V domains shown)
VH: B1 VH with L11V, R16G, S106G
VL: B1 VL with P25S, S28P, G94A
notes: one-arm
Turning to B7, the Kd worked out at 8.51 nM.

B8: TR01H067-E22Hh/none-Hi-Kn010G3/L0248-k0 (antibody, V domains shown)
VH: B1 VH with A75D, I81L, I111A
VL: B1 VL with L38I, H39Q, G94Y
notes: one-arm
B8 displayed a dissociation constant (Kd) of 139 nM.

B9: TR01H082-E22Hh/none-Hi-Kn010G3/L0266-k0 (antibody, V domains shown)
VH: B1 VH with A75D, I81L, S106G, I111A
VL: B1 VL with P25S, S28P, G94V
notes: one-arm
B9 returned a Kd of 22.9 nM.

B10: TR01H082-E22Hh/none-Hi-Kn010G3/L0263-k0 (antibody, V domains shown)
VH: B1 VH with A75D, I81L, S106G, I111A
VL: B1 VL with P25S, L38I, G94A
notes: one-arm
B10: the equilibrium dissociation constant (Kd) was 30.9 nM.

B11: TR01H082-E22Hh/none-Hi-Kn010G3/L0259-k0 (antibody, V domains shown)
VH: B1 VH with A75D, I81L, S106G, I111A
VL: B1 VL with P25S, L38I, G94T
notes: one-arm
Molecule B11 yielded a Kd of 50.7 nM.

B12: TR01H067-E22Hh/none-Hi-Kn010G3/L0262-k0 (antibody, V domains shown)
VH: B1 VH with A75D, I81L, I111A
VL: B1 VL with P25S, S28P, G94A
notes: one-arm
As to B12, the affinity, expressed as Kd, was 49.2 nM.

B13: TR01H071-E22Hh/none-Hi-Kn010G3/L0226-k0 (antibody, V domains shown)
VH: B1 VH with Q56N
VL: B1 VL with P25S, L38I, G94I
notes: one-arm
Take B13: binding was characterised by a dissociation constant (Kd) of 25.1 nM.

B14: TR01H082-E22Hh/none-Hi-Kn010G3/TR01L023-k0 (antibody, V domains shown)
VH: B1 VH with A75D, I81L, S106G, I111A
VL: B1 VL with P25S, Q42L, A48S, R50Q, G94T
notes: one-arm
Regarding B14, the Kd was found to be 42.5 nM.

B15: TR01H082-E22Hh/none-Hi-Kn010G3/TR01L018-k0 (antibody, V domains shown)
VH: B1 VH with A75D, I81L, S106G, I111A
VL: B1 VL with R24Q, P25A, Q27E, Q42L, A48S, R50Q
notes: one-arm
In turn, B15 gave a Kd of 47.2 nM.

B16: TR01H082-E22Hh/none-Hi-Kn010G3/L0271-k0 (antibody, V domains shown)
VH: B1 VH with A75D, I81L, S106G, I111A
VL: B1 VL with P25S, S28P, N35Q
notes: one-arm
B16 returned a Kd of 68.2 nM.

B17: TR01H082-E22Hh/none-Hi-Kn010G3/L0272-k0 (antibody, V domains shown)
VH: B1 VH with A75D, I81L, S106G, I111A
VL: B1 VL with P25S, S28P, P29L, N35Q
notes: one-arm
The molecule B17 came in with a dissociation constant Kd of 74.4 nM.

B18: TR01H067-E22Hh/none-Hi-Kn010G3/TR01L016-k0 (antibody, V domains shown)
VH: B1 VH with A75D, I81L, I111A
VL: B1 VL with P25S, Q42L, A48S, R50Q, G94Y
notes: one-arm
With B18, the dissociation constant (Kd) came to 10.9 nM.

B19: TR01H061-E22Hh/none-Hi-Kn010G3/L0226-k0 (antibody, V domains shown)
VH: B1 VH
VL: B1 VL with P25S, L38I, G94I
notes: one-arm
In turn, B19 gave a Kd of 47.1 nM.

B20: TR01H082-E22Hh/none-Hi-Kn010G3/L0264-k0 (antibody, V domains shown)
VH: B1 VH with A75D, I81L, S106G, I111A
VL: B1 VL with G94A
notes: one-arm
As for B20, the Kd was determined as 34.4 nM.

B21: TR01H071-E22Hh/none-Hi-Kn010G3/L0215-k0 (antibody, V domains shown)
VH: B1 VH with Q56N
VL: B1 VL with P25S, S28P, L38I
notes: one-arm
As to B21, the Kd is 9.51 nM.

B22: TR01H081-E22Hh/none-Hi-Kn010G3/L0262-k0 (antibody, V domains shown)
VH: B1 VH with S106G
VL: B1 VL with P25S, S28P, G94A
notes: one-arm
B22: the Kd turned out to be 5.76 nM.

B23: TR01H067-E22Hh/none-Hi-Kn010G3/L0200-k0 (antibody, V domains shown)
VH: B1 VH with A75D, I81L, I111A
VL: B1 VL
notes: one-arm
Turning to B23, the Kd is 60.3 nM.

B24: TR01H082-E22Hh/none-Hi-Kn010G3/L0270-k0 (antibody, V domains shown)
VH: B1 VH with A75D, I81L, S106G, I111A
VL: B1 VL with P25S, P29L, N35Q
notes: one-arm
B24 returned a Kd of 74.2 nM.

B25: TR01H061-E22Hh/none-Hi-Kn010G3/L0215-k0 (antibody, V domains shown)
VH: B1 VH
VL: B1 VL with P25S, S28P, L38I
notes: one-arm
Turning to B25, the Kd amounted to 15.4 nM.

B26: TR01H083-E22Hh/none-Hi-Kn010G3/L0262-k0 (antibody, V domains shown)
VH: B1 VH with Q56N, S106G
VL: B1 VL with P25S, S28P, G94A
notes: one-arm
On to B26, for which binding was put at a Kd of 2.45 nM.

B27: TR01H067-E22Hh/none-Hi-Kn010G3/TR01L015-k0 (antibody, V domains shown)
VH: B1 VH with A75D, I81L, I111A
VL: B1 VL with P25S, Q42L, A48S, R50Q
notes: one-arm
In the case of B27, binding was characterised by a dissociation constant (Kd) of 86.4 nM.

B28: TR01H071-E22Hh/none-Hi-Kn010G3/L0200-k0 (antibody, V domains shown)
VH: B1 VH with Q56N
VL: B1 VL
notes: one-arm
In the case of B28, the Kd is 6.13 nM.

B29: TR01H067-E22Hh/none-Hi-Kn010G3/L0226-k0 (antibody, V domains shown)
VH: B1 VH with A75D, I81L, I111A
VL: B1 VL with P25S, L38I, G94I
notes: one-arm
Turning to B29, the Kd turned out to be 132 nM.

B30: TR01H067-E22Hh/none-Hi-Kn010G3/L0215-k0 (antibody, V domains shown)
VH: B1 VH with A75D, I81L, I111A
VL: B1 VL with P25S, S28P, L38I
notes: one-arm
For the molecule B30, the Kd was determined as 74.1 nM.

B31: TR01H082-E22Hh/none-Hi-Kn010G3/L0268-k0 (antibody, V domains shown)
VH: B1 VH with A75D, I81L, S106G, I111A
VL: B1 VL with P25S, L38I, H39Q, G94V
notes: one-arm
For B31, the affinity, expressed as Kd, was 136 nM.

B32: TR01H082-E22Hh/none-Hi-Kn010G3/L0260-k0 (antibody, V domains shown)
VH: B1 VH with A75D, I81L, S106G, I111A
VL: B1 VL with G94T
notes: one-arm
With B32, binding was characterised by a dissociation constant (Kd) of 45.3 nM.

Values taken from patent US20250066503A1, “CELL INJURY INDUCING THERAPEUTIC DRUG FOR USE IN CANCER THERAPY” (CHUGAI SEIYAKU KABUSHIKI KAISHA, priority 2016, published 2025).
